Results as given in article PMC4687731.

Legend:
Test in all cases: EMSA
DMP1 ΔMHR = molecular target: T1, DMP1 ΔMHR (human, UniProt Q9Y222 1-223)
T1 sequence: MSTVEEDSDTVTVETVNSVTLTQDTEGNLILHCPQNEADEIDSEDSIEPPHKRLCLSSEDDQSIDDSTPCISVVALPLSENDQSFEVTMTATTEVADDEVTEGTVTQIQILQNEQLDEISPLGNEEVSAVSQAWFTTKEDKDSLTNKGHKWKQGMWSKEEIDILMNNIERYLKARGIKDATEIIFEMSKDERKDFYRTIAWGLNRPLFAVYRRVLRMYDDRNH

DMP1β (DMTF1 isoform β) = molecular target: T2, DMP1β (DMTF1 isoform β) (human, UniProt Q9Y222-2 1-272)
T2 sequence: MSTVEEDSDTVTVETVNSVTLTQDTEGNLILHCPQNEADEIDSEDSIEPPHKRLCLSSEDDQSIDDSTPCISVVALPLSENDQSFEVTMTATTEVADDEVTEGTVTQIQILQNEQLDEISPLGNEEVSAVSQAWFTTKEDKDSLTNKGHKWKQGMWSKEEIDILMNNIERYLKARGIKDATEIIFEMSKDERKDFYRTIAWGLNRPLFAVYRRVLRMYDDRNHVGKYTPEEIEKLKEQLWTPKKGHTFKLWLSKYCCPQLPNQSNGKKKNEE

DMP1γ (DMTF1 isoform γ) = molecular target: T3, DMP1γ (DMTF1 isoform γ) (human, UniProt Q9Y222-3 1-285)
T3 sequence: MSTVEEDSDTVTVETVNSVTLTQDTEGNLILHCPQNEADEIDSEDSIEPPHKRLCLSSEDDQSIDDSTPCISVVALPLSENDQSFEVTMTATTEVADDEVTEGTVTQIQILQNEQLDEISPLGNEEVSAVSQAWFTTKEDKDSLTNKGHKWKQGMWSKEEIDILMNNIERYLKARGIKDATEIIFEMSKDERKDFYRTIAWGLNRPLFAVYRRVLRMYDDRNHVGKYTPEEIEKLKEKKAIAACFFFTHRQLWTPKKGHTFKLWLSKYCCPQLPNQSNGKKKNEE

DMP1α (DMTF1 isoform α) = molecular target: T4, DMP1α (DMTF1 isoform α) (human, UniProt Q9Y222 1-760)
T4 sequence: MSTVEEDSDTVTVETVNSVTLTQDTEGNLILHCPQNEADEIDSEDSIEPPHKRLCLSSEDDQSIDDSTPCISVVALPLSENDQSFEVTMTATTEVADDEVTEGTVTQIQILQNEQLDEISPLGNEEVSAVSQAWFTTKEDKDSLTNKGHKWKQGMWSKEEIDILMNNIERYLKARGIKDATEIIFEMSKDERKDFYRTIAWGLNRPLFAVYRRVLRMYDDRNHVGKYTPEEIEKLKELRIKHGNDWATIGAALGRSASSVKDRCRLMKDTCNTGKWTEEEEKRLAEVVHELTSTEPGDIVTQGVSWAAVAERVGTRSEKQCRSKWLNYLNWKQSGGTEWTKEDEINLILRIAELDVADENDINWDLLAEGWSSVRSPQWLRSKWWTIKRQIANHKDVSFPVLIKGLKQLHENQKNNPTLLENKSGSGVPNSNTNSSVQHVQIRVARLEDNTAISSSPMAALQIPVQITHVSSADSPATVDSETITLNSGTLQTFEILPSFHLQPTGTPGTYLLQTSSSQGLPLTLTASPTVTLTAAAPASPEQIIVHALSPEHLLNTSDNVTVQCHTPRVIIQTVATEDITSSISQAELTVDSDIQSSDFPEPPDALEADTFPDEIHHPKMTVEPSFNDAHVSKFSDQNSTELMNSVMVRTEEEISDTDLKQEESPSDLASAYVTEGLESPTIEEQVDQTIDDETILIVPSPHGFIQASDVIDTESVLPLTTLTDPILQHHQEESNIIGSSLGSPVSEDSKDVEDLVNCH

B1: human ARF promoter DMP1 site probe (dsDNA)
DNA 1: GTCAGGTGACGGATGTAGCTAGG
DNA 2: CCTAGCTACATCCGTCACCTGAC
**Q.** Which results are given for B1?
**A.** binding result (DMP1 ΔMHR): no binding; binding result (DMP1β (DMTF1 isoform β)): no binding; binding result (DMP1γ (DMTF1 isoform γ)): no binding; binding result (DMP1α (DMTF1 isoform α)): binds
